Test results taken from paper PMC11070986 (Nature, 2024).

Target: the molecule itself
Experiment: cryo-EM structure

B1: human VMAT1(ΔL1/2) (natural protein, UniProt P54219 1-525, looked up)
chain: MLRTILDAPQRLLKEGRASRQLVLVVVFVALLLDNMLFTVVVPIVPTFLYDMEFKEVNSSLHLGHAGSNCLQGTGFLEEEITRVGVLFASKAVMQLLVNPFVGPLTNRIGYHIPMFAGFVIMFLSTVMFAFSGTYTLLFVARTLQGIGSSFSSVAGLGMLASVYTDDHERGRAMGTALGGLALGLLVGAPFGSVMYEFVGKSAPFLILAFLALLDGALQLCILQPSKVSPESAKGTPLFMLLKDPYILVAAGSICFANMGVAILEPTLPIWMMQTMCSPKWQLGLAFLPASVSYLIGTNLFGVLANKMGRWLCSLIGMLVVGTSLLCVPLAHNIFGLIGPNAGLGLAIGMVDSSMMPIMGHLVDLRHTSVYGSVYAIADVAFCMGFAIGPSTGGAIVKAIGFPWLMVITGVINIVYAPLCYYLRSPPAKEEKLAILSQDCPMETRMYATQKPTKEFPLGEDSDEEPDHEE
For B1, the “stoichiometry N” value was 2.
